The values that follow come from US20160024207A1 (University of Texas, published 2016).

Experiment [1] has as its target human EpCAM expressed on human carcinoma cells (PC3, MCF7) (human) (UniProt P16422). Briefly: NIR flow cytometry, IRDye 800CW-labeled isotype control mAb on PC3 cells.
Experiment [2] deals with recombinant human (rhu) EpCAM/Fc (960-EP, R&D Systems) (human) (UniProt P16422). Briefly: flow cytometry of E. coli displaying scFv (APEx), EpCAM-Fc then fluorescent secondary antibody.
The target of experiment [3] is human EpCAM expressed on human carcinoma cells (PC3, MCF7) (human) (UniProt P16422). Briefly: flow cytometry on MCF7 cells, mAb concentration 6.4 ng/ml, fluorescently labeled secondary antibody, 10,000 cells. (In general: In flow cytometry, cells or beads pass a laser one at a time.)
The target is the same in experiment [4]. Briefly: flow cytometry on MCF7 cells, mAb concentration 160 ng/ml, fluorescently labeled secondary antibody, 10,000 cells.
The target is the same in experiment [5]. Kind of experiment: flow cytometry on MCF7 cells, mAb concentration 32 ng/ml, fluorescently labeled secondary antibody, 10,000 cells.
Experiment [6] concerns the target T1, recombinant human (rhu) EpCAM/Fc (960-EP, R&D Systems) (human, UniProt P16422 24-265).
T1 construct: Bought fusion protein; not shown: Fc part
T1 sequence (looked up): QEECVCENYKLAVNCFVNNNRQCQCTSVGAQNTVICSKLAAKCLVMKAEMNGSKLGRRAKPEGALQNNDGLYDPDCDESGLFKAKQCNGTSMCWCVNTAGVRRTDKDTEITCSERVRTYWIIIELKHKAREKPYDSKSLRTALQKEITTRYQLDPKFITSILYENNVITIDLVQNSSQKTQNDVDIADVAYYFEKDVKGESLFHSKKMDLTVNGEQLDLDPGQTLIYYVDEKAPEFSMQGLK
Briefly: SPR (Biacore T100), EpCAM/Fc captured on anti-human IgG Fc chip, Fab as analyte, 25 C. As to the method: (§1) In order to discriminate between monovalent and multivalent interactions on quantitative SPR measurements of KD, the binding affinities of the Fab fragments of mAbs were measured using SPR and a Biacore T100 instrument (GE Healthcare). Two flow cells of a CM5 chip were coated with goat anti-human IgG (Fc-specific) (Jackson ImmunoResearch) to approximately 8000 resonance units (RU) with an NHS/EDC Amine Coupling Kit BR-1000-50 (GE Healthcare). All measurements were made at 25° C. using HBS-EP+(10 mM HEPES, 150 mM NaCl, 3 mM EDTA, 0.05% v/v Tween 20, pH 7.4) as running buffer. EpCAM/Fc ligand (R&D Systems) was diluted in HBS-EP+ to 0.5 μg/ml and applied to the coated chip surface. Fab fragments were then tested at five different molar concentrations starting at 50 nM after performing a two-fold dilution series. Flow cells were regenerated with 100 mM phosphoric acid. All samples were applied in duplicate.
For orientation: In SPR one partner is held on a chip, and binding of the other changes the refractive index at the surface.

In experiment [7] the target is T1, recombinant human (rhu) EpCAM/Fc …. Kind of experiment: SPR, ratio of Fab KD values, reference mAb 9601 Fab. As to the method:
as §1

Experiment [8] has the same target. Briefly: SPR (Biacore T100), EpCAM/Fc captured, Fab as analyte; Fab fragment, not IgG. As to the method: as §1
The target is the same in experiment [9]. Briefly: Biacore kinetic analysis of scFv.
Experiment [10] deals with T2, murine EpCAM on mouse 4T1 mammary carcinoma cells (mouse, UniProt Q99JW5 24-315).
T2 construct: whole, on cells; also called mouse EpCAM
T2 sequence (looked up): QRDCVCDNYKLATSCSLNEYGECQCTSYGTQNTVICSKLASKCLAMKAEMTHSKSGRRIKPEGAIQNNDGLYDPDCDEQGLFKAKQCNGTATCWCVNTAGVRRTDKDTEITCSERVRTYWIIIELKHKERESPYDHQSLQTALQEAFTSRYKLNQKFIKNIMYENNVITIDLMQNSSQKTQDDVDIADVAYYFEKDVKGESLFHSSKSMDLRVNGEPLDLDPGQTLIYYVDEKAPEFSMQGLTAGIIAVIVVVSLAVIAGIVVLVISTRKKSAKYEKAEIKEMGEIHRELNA
Briefly: flow cytometry on mouse 4T1 cells, PE-labeled anti-mouse IgG. As to the method:
To determine whether mAbs specific for human EpCAM cross-react with murine EpCAM, the human cell line MCF7 (as described above) and 4T1 cells (mouse mammary carcinoma, CRL2539™, ATCC) were used. Hybridoma cells were grown and mAbs purified as above-described. Rat anti-mouse EpCAM, mAb G8.8 (Developmental Studies Hybridoma Bank, University of Iowa, Iowa City, Iowa) was utilized as a positive control for detection of EpCAM on the surface of 4T1 cells. Following incubation (20 min, on ice) with mAb, cells were washed with PBS-BSA and either DyLIGHT-488 conjugated donkey anti-rat IgG (Jackson ImmunoResearch) or PE-conjugated donkey F(ab′) 2 anti-mouse IgG (Jackson ImmunoResearch) was added at 5 μg per sample and incubated for an additional 20 min for detecting cells bound by rat anti-mouse or mouse anti-human EpCAM mAb, respectively. Cells were washed again with PBS-BSA and fixed in 2% paraformaldehyde prior to analyzing (10,000 events) on a BD FACSCalibur Flow Cytometer (BD Biosciences) using WinMDI2.9 software.

For experiment [11], the target named is T3, human EpCAM expressed on human carcinoma cells (PC3, MCF7) (human, UniProt P16422 24-314).
T3 construct: whole, on cells; also called native EpCAM; surface expressed EpCAM
T3 sequence (looked up): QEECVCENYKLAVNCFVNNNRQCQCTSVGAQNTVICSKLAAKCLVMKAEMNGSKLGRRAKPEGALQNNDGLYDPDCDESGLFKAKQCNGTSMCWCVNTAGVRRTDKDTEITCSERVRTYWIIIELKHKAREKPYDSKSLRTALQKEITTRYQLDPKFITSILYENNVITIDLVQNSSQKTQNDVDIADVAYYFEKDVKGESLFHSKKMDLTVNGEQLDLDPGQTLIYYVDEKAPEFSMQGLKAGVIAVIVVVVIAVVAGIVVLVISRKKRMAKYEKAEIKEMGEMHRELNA
Kind of experiment: flow cytometry on PC3 cells, 5 µg/ml mAb, PE-labeled anti-mouse IgG. As to the method: PC3 cells (human prostate adenocarcinoma line, CRL1435™, ATCC, Manassas, Va.), grown to 80%-100% confluency in DMEM with 10% FBS, were treated with Trypsin-EDTA and resuspended in PBS containing 2% bovine serum albumin (BSA). One million cells per well were labeled with 5 μg/ml of mAb in a 200-μl volume and incubated on ice for 20 min. After washing with PBS-BSA, phycoerythrin (PE)-conjugated donkey F(ab′)2 anti-mouse IgG (Jackson ImmunoResearch, West Grove, Pa.) at 5 μg per sample was added for an additional 20-min incubation. Cells were washed again with PBS-BSA and fixed in 2% paraformaldehyde prior to analyzing (10,000 events) on a BD FACSCalibur Flow Cytometer (BD Biosciences, San Jose, Calif.). Analyses of mean fluorescence intensities (MFI) were performed using WinMDI2.9 software.

In experiment [12] the target is recombinant human (rhu) EpCAM/Fc (960-EP, R&D Systems) (human) (UniProt P16422). Kind of experiment: Biacore kinetic analysis of scFv.
For experiment [13], the target named is human EpCAM expressed on human carcinoma cells (PC3, MCF7) (human) (UniProt P16422). Briefly: flow cytometry on PC3 cells, scFv then fluorophore-conjugated secondary antibody.

In experiment [1], “commercial IgG2b isotype control mAb (BD Pharmingen) (antibody)” yielded a Biological Activity, % (percentage of PC3 cells stained) of 0.7% and an MFI of 149 MFI units.

For the molecule “control scFv with no affinity to EpCAM (displayed on E. coli)”, in experiment [2], the MFI came to 13 MFI.

Take “in-house IgG1 isotype control mAb 69 (antibody)”: in [1], the Biological Activity, % (percentage of PC3 cells stained) came to 3.2% and the MFI was found to be 125 MFI units.

Consider “Veridex anti-EpCAM mAb VU-1D9 (antibody)”, for which the MFI came out at 38 in experiment [3], 321 in [4] and 106 in [5].

B1: Fab fragment of mAb 153 (Fab, V domains shown)
VH: QVQLQQSGAELVKPGTSVKLSCKASGYNFTSYWINWVKLRPGQGLEWIGDIYPGSGNSHYNEKFKSKATLTVDTSSSTAYMQLSSLASGDSALYYCARNYYGSSPFPMDYWGQGTSVTVSS
VL: DIVMTQSPSSLIVTAGEKVTMSCKSSQSLLNSGNQKNYLTWYQQKPGQPPKLLIYWASTRESGVPDRFTGSGSGTDFTLTLNSAQAEDLAVYYCQNDYTYPLTFGAGTKLEIK
Consider B1, for which, in experiment [6], the Kd – broadly, the equilibrium constant for the complex coming apart – was found to be 0.53 nM; the koff (as a rule, the first-order rate constant of dissociation) worked out at 0.00012 s⁻¹; the kon (usually a measure of how fast the partners come together) came out at 220000 M⁻¹ s⁻¹. The “fold increase in affinity above mAb 9601” value in experiment [7] is 28 fold. Besides, the Kd in experiment [8] was 0.54 nM.

B2: anti-EpCAM scFv 153 (scFv, V domains shown)
VH: B1 VH
VL: B1 VL
Regarding B2, in [9], the Kd amounted to 0.21 nM.

B3: anti-EpCAM monoclonal antibody 153 (antibody, V domains shown)
VH: B1 VH
VL: B1 VL
notes: In-house mouse IgG1 from hybridoma; In the NIR flow cytometry it carried IRDye 800CW (and DOTA)
For B3, the binding result in experiment [10] is recorded as “no binding”. In addition, the “MFI fold increase relative to PE-conjugated secondary antibody alone” value in experiment [11] came out at 4.8 fold.

B4: anti-EpCAM scFv 7 (scFv, V domains shown, not shown: small tags and cut ends)
VH: QVQLQQSGPELEKPGGSVKISCKASGYSFTGYNMNWVKQSNGKSLEWIGNIDPYNGGSGFDQKFKGKATLTVDTSSSTAYMHLKSLTSEDSAVYYCAREYGSNFDYWGQGTTLTVSS
VL: DIQMTQSTSSLSASLGDRVTISCRASQDIGTYLNWYQQQADGTFKLLIYYTSRLHSGIPSRFSGSGSGTDFSLTISNLGQEDIATYFCQQGNTLPWTFGGGTKLEIK
modifications: linker not given
As for B4, the equilibrium dissociation constant (Kd) in experiment [12] was found to be 4.14 nM. Moreover, the MFI in experiment [2] was found to be 170 MFI; in [13], 380 MFI.

B5: anti-EpCAM monoclonal antibody 7 (antibody, V domains shown)
VH: B4 VH
VL: B4 VL
notes: In-house mouse IgG1 from hybridoma; IRDye 800CW (and DOTA) labeled in the NIR flow cytometry; also called mAb 7
In the case of B5, in [10], the binding result was “no binding”. The “MFI fold increase relative to PE-conjugated secondary antibody alone” value in [11] was found to be 3.9 fold.

B6: Fab fragment of mAb 7 (Fab, V domains shown)
VH: B4 VH
VL: B4 VL
notes: Fab made by ficin digestion of the mouse IgG1 mAb 7; also called 7 Fab; mAb 7 Fab fragment
With B6, in experiment [6], the dissociation constant (Kd) is 2.3 nM, the koff worked out at 0.00099 s⁻¹ and the kon stood at 430000 M⁻¹ s⁻¹. Also, the “fold increase in affinity above mAb 9601” value in experiment [7] is 7 fold.
